In the Human Domainome abundance scans (Beltran et al. 2025) one finds abundance fitness data, which are given here for 167 variants.

± gives the uncertainty stated by the source.

The labels stand for the following.
B1: Apoptosis-associated speck-like protein containing a CARD, residues 114 to 194; numbered along this chain, Q9ULZ3 (parent)
chain: FIDQHRAALIARVTNVEWLLDALYGKVLTDEQYQAVRAEPTNPSKMRKLFSFTPAWNWTCKDLLLQALRESQSYLVEDLER

The variants in this series derive from B1. Nature of the series: abundance fitness (aPCA) (normalised: wild type 0, dead -1); higher = more abundant; growth selection in yeast, the domain comes from the species named. The settings on record: Homo sapiens.
Take C60D: the abundance fitness was found to be 0.332 ± 0.12. To C60G belongs 0.084 ± 0.045; to Q34K, -0.143 ± 0.13; to Q34C, -0.3 ± 0.11. Regarding E80S, the abundance fitness is -0.204 ± 0.058. On to E80G, for which the abundance fitness is -0.317 ± 0.053. E80Q: the abundance fitness was -0.115 ± 0.084. Turning to S51C, the abundance fitness is -0.429 ± 0.12.

Take S51W: the abundance fitness was -0.849 ± 0.15. To I10Q belongs -0.655 ± 0.15; to L63K, -0.298 ± 0.11. For the variant L63R, the abundance fitness was -0.385 ± 0.059.

For T14F, the abundance fitness is -0.749 ± 0.17.

With T14Y, the abundance fitness is -0.54 ± 0.17.

Take L20S: the abundance fitness is -0.583 ± 0.077.

Take L20V: the abundance fitness was -0.388 ± 0.051. Next, L20C: 0.005 ± 0.08; L20Q: -0.854 ± 0.2. On to Y74C, for which the abundance fitness was found to be 0.177 ± 0.084.

As to Y74K, the abundance fitness is 0.221 ± 0.098. In the case of V27R, the abundance fitness is -0.909 ± 0.096.

With V27F, the abundance fitness is -0.413 ± 0.1.

In the case of Y33S, the abundance fitness was -0.376 ± 0.053. Consider Y33E, for which the abundance fitness is -0.59 ± 0.12. For the variant Y33G, the abundance fitness is -0.69 ± 0.062. For the variant Y33P, the abundance fitness was -0.654 ± 0.13. As to D30V, the abundance fitness was -0.339 ± 0.055.

As for D30Q, the abundance fitness was -0.199 ± 0.11. Take D30E: the abundance fitness was -0.013 ± 0.077. Take D30P: the abundance fitness is -0.213 ± 0.075. To T59E belongs 0.269 ± 0.069. As for T59G, the abundance fitness was -0.019 ± 0.046. Turning to A11E, the abundance fitness is -0.115 ± 0.41. To N42V belongs -0.596 ± 0.082; to N42F, -0.372 ± 0.14; to N42C, -0.616 ± 0.1.

As for V76C, the abundance fitness was -0.497 ± 0.15. Consider V76S, for which the abundance fitness is -1.05 ± 0.25. As for V76K, the abundance fitness is -0.598 ± 0.17. For W56F, the abundance fitness was -0.506 ± 0.24. On to W56I, for which the abundance fitness is -0.434 ± 0.16. On to W56R, for which the abundance fitness is -0.574 ± 0.069.

As to W56E, the abundance fitness is -1.13 ± 0.42. With W56T, the abundance fitness is -0.74 ± 0.088. Regarding D62V, the abundance fitness is -0.646 ± 0.086. To D62R belongs -0.2 ± 0.071; to D62K, -0.088 ± 0.081; to D62F, -0.195 ± 0.12. Turning to A67P, the abundance fitness was -0.658 ± 0.11.

Turning to D78H, the abundance fitness was -0.034 ± 0.12. As for D78I, the abundance fitness was -0.186 ± 0.18. Take D78L: the abundance fitness is -0.167 ± 0.043. To V36A belongs -0.46 ± 0.08; to R12P, -0.964 ± 0.18.

For R12T, the abundance fitness is -0.746 ± 0.13. To Q72W belongs -0.615 ± 0.082. On to Q72T, for which the abundance fitness is -0.659 ± 0.11. To Q72Y belongs -0.332 ± 0.18; to R47S, -0.197 ± 0.052; to R47G, -0.62 ± 0.061. Next, F52N: -0.836 ± 0.45. Take F52Y: the abundance fitness is -0.105 ± 0.085. For W18R, the abundance fitness was 0.076 ± 0.04.

In the case of W18F, the abundance fitness is 0.213 ± 0.091.

Consider T53R, for which the abundance fitness is -0.466 ± 0.062. On to T53F, for which the abundance fitness is -0.342 ± 0.15. Regarding T53Y, the abundance fitness stood at 0.11 ± 0.11. Turning to G25T, the abundance fitness is -0.81 ± 0.16. Consider G25C, for which the abundance fitness is -0.582 ± 0.12.

G25K: the abundance fitness amounted to 0.025 ± 0.14. With S73G, the abundance fitness was determined as 0.067 ± 0.043. To S73R belongs -0.025 ± 0.045. Next, S73Q: -0.016 ± 0.11; A35W: -0.957 ± 0.17; A35V: -0.365 ± 0.051. As for A35G, the abundance fitness is -0.472 ± 0.061. To E39M belongs -0.129 ± 0.1; to E39F, -0.714 ± 0.13. Regarding E39C, the abundance fitness is -0.088 ± 0.074.

Turning to Q66K, the abundance fitness was -0.059 ± 0.089.

Turning to L75Q, the abundance fitness is -0.651 ± 0.13. For the variant L75P, the abundance fitness was -0.695 ± 0.1. To L9D belongs -0.798 ± 0.25; to L9Q, -1.03 ± 0.27; to L9N, -0.776 ± 0.35. Next, L19W: -0.643 ± 0.11; L23F: -0.737 ± 0.24; L23I: -0.564 ± 0.29.

With L23N, the abundance fitness is -1.06 ± 0.38. In the case of L23T, the abundance fitness was -0.943 ± 0.16. Turning to A38I, the abundance fitness is -0.413 ± 0.1. With A38W, the abundance fitness was -0.861 ± 0.16. On to E17M, for which the abundance fitness is -0.49 ± 0.061. On to E17S, for which the abundance fitness is -0.536 ± 0.06. Turning to E17A, the abundance fitness was -0.619 ± 0.067. To R6V belongs -0.416 ± 0.07; to R6D, -0.724 ± 0.19. To R6N belongs -0.397 ± 0.16. For R6M, the abundance fitness is -0.107 ± 0.082. To L79I belongs -0.455 ± 0.24; to L79N, -0.688 ± 0.38.

L79G: the abundance fitness is -0.882 ± 0.11. L49A: the abundance fitness was -0.93 ± 0.11. For L49P, the abundance fitness is -0.73 ± 0.12. Turning to Q4W, the abundance fitness was -0.802 ± 0.15. Take Q4A: the abundance fitness is -0.358 ± 0.064. In the case of Q4N, the abundance fitness was -0.103 ± 0.12. Consider L65F, for which the abundance fitness is -0.024 ± 0.073. On to L65I, for which the abundance fitness is -0.338 ± 0.099. As to L65A, the abundance fitness was -0.074 ± 0.06.

On to H5Y, for which the abundance fitness is -0.316 ± 0.11. Next, L68A: -0.733 ± 0.14. Turning to A8V, the abundance fitness is -0.424 ± 0.11. In the case of S44L, the abundance fitness worked out at 0.031 ± 0.05.

Consider S44A, for which the abundance fitness amounted to 0.116 ± 0.044. For the variant E77F, the abundance fitness is -0.147 ± 0.22. In the case of E77G, the abundance fitness is -0.481 ± 0.049. For the variant E70F, the abundance fitness was -0.401 ± 0.12. For Q32D, the abundance fitness is -0.842 ± 0.27. For the variant Q32S, the abundance fitness is -0.598 ± 0.091. In the case of P54V, the abundance fitness was -0.197 ± 0.054. Take P54Q: the abundance fitness was -0.064 ± 0.11. As to P54C, the abundance fitness is -0.254 ± 0.085. P40N: the abundance fitness was -0.419 ± 0.18. In the case of P40L, the abundance fitness is -0.587 ± 0.074. Regarding P40K, the abundance fitness was -0.123 ± 0.086. Turning to E31P, the abundance fitness was -0.735 ± 0.12. Regarding E31F, the abundance fitness is -0.82 ± 0.19. As for S71W, the abundance fitness is -0.874 ± 0.12. Turning to S71Q, the abundance fitness is -0.251 ± 0.1. For R69P, the abundance fitness was -0.753 ± 0.12. Turning to A55V, the abundance fitness is -0.416 ± 0.082. Consider A55K, for which the abundance fitness was 0.016 ± 0.16. To A55I belongs -0.286 ± 0.44. On to A55P, for which the abundance fitness was -0.325 ± 0.073. Next, L64T: -0.513 ± 0.09; L64D: -0.519 ± 0.12.

With N15D, the abundance fitness was -0.142 ± 0.068. On to N15V, for which the abundance fitness was -0.947 ± 0.14. For N57H, the abundance fitness is -0.279 ± 0.21.

For A7D, the abundance fitness stood at 0.065 ± 0.1. On to A7K, for which the abundance fitness was -0.035 ± 0.1. V13C: the abundance fitness came out at 0.023 ± 0.068. Turning to V13P, the abundance fitness is -0.396 ± 0.12.

On to V13D, for which the abundance fitness is -0.688 ± 0.14. In the case of R37M, the abundance fitness stood at 0.136 ± 0.073. For R37D, the abundance fitness is -0.219 ± 0.074.

As for R37L, the abundance fitness came out at 0.067 ± 0.042.

In the case of V16T, the abundance fitness is -0.572 ± 0.095.

L28S: the abundance fitness is -0.812 ± 0.091. Next, L28K: -0.807 ± 0.24.

Regarding L28M, the abundance fitness was -0.767 ± 0.15.

On to T41E, for which the abundance fitness is -0.782 ± 0.17. To T41A belongs -0.52 ± 0.081; to P43A, -0.045 ± 0.054.

Regarding P43H, the abundance fitness is -0.221 ± 0.13. Consider M46R, for which the abundance fitness is -0.653 ± 0.068.

As to M46Q, the abundance fitness is -0.717 ± 0.22. On to M46F, for which the abundance fitness was -0.807 ± 0.15. Next, M46W: -0.696 ± 0.12; Y24V: -0.054 ± 0.047; Y24Q: -0.217 ± 0.1. Turning to Y24N, the abundance fitness is -0.078 ± 0.12. In the case of F50N, the abundance fitness is -0.775 ± 0.33. To F50C belongs -0.937 ± 0.17; to D3Y, -0.794 ± 0.2. For D3N, the abundance fitness is -0.599 ± 0.12.
